Data set [1] can be described thus: Thermal stability study (remaining activity after incubation). Type of data set: physicochemical. As to the method: FIGS. 19 and 20—show the effect of temperature on the stability of the Bsp184FDH and Bsp383FDH enzymes. In FIG. […] In FIG. 20 (1) Bsp184FDH (2.1 mg/mL) and (2) Bsp383FDH (1.5 mg/mL) were incubated at 60° C. and 70° C. for 48 hours period in a similar way. Remaining activities were assayed under standard assay conditions and were expressed as the percentage of activities.
Thermal stability for purified wild-type BcenFDH1 (Bsp184FDH) and BspFDH2 (Bsp383FDH) catalyzed formate oxidation were investigated by Uv/V is spectrophotometry in a 96-well plate format. The results are illustrated in FIGS. 19 and 20. […] In addition, time based-thermal stability for purified wild-type BcenFDH1 (Bsp184FDH) and BspFDH2 (Bsp383FDH) catalyzed formate oxidation were also investigated at 60° C. and 70° C. over 48 hours in a similar way. The samples were spun down briefly to remove any precipitations before use. 10 μL of heat-treated BcenFDH1 and BspFDH2 were added into each well and equilibrated for 3 min at 30° C. after adding 170 μL of 200 mM sodium formate (dissolving in 50 mM sodium phosphate buffer, pH 7.0.) The reaction was initiated by addition of 20 μL of NADP^+ solution from a freshly prepared stock of 20 mM using an 8-channel pipette. The plate was then immediately placed into the plate reader. The plate was shaken for 5 seconds to ensure thorough mixing. Time-based measurements were recorded every 10 s for 10 min. The rate of formate oxidation was calculated using the absorption coefficient of 3.38 mM^−1 (for 200 μL).

Data set [2] in a line: Assay of enzyme activity (specific activity, U/mg). The data set is classed as biochemical. The following applies: unit = μmol formate oxidized per min in the presence of co-factor; This work. The protocol:
The reaction was initiated by addition of NAD^+. The total volume of the reaction mixture was 1 mL. Specific activity (U/mg enzyme) was defined as number of μmols of product formed per mg enzyme per minute.

A short description of data set [3]: Steady state kinetics for NADP^+ (FDH-catalysed formate oxidation). The following applies: for Km / kcat NADP^+: cofactor NADP^+, 0.18M formate. Type of data set: biochemical. The protocol: (§1) BcenFDH1 (Bsp184FDH) and BspFDH2 (Bsp383FDH) catalyzed oxidation of formate to CO2 was monitored by UV/Vis spectrophotometry in a 96-well plate format. A series of eight solutions of formate (0-200 mM) were prepared by successive dilutions of a stock solution of 0.5 M sodium formate in 0.1 M sodium phosphate buffer, pH 7.0. From this series, 170 μL was transferred into wells of the 96-well plate. 10 μL of the FDHs from a stock solution (64.1 μM for BcenFDH1 (Bsp184FDH) and 78.0 μM for BspFDH2 (Bsp383FDH)) were added into each well and equilibrated for 3 min at 30° C. The reaction was initiated by addition of 20 μL of NAD^+ or NADP^+ solution from a freshly prepared stock (10 mM) using an 8-channel pipette. The plate was then immediately placed into the plate reader. The plate was shaken for 5 s to ensure thorough mixing, and then time-based measurements were recorded every 15 s for 10 min. The rate of formate oxidation was calculated using an extinction coefficient of 3.38 mM^−1 (for 200 μL), which was determined using NADH standards. Km and Vmax values were obtained by non-linear regression to the Michaelis-Menten equation (Eq.1 below) using Origin v7 (Microcal Software Inc.).
(§2) Similar procedure were used for determination of Michaelis-Menten parameters for NAD^+ and NADP^+. A series of eight solutions of cofactor (0-75 mM) were prepared by successive dilutions of stock solutions. […] of sodium formate solutions (180 mM in well) were transferred into wells of the 96-well plate. 10 μL of the FDHs from a stock solution (64.1 μM for BcenFDH1 (Bsp184FDH) and 78.0 μM for BspFDH2 (Bsp383FDH)) were added into each well and equilibrated for 3 min at 30° C. The reaction was initiated by addition of 20 μL of NAD^+ or NADP^+ solutions using an 8-channel pipette. The plate was then immediately placed into the plate reader. The plate was shaken for 5 s to ensure thorough mixing, and then time-based measurements were recorded every 15 s for 10 min. The rate of formate oxidation was calculated using an extinction coefficient of 3.38 mM^−1 (for 200 μL), which was determined using NADH standards. Km and Vmax values were obtained by non-linear regression to the Michaelis-Menten equation as before.

Data set [4] in a line: pH profile determination of FDH-catalysed formate oxidation. Type of data set: biochemical. Conditions: pHs as low 4 or as high as 10.5. As to the method:
The pH profiles for BcenFDH1 (Bsp184FDH) and BspFDH2 (Bsp383FDH) catalyzed formate oxidation, shown in FIG. 13(a) and (b), were investigated by Uv/Vis spectrophotometry in a 96-well plate format. […] From this series, 170 μL was transferred into wells of the 96-well plate. 10 μL of the FDHs from a stock solution solution (64.1 μM for BcenFDH1 (Bsp184FDH) and 78.0 μM for BspFDH2 (Bsp383FDH)) were added into each well and equilibrated for 3 min at 30° C. The reaction was initiated by addition of 20 μL of NAD^+ solution from a freshly prepared stock (10 mM) using an 8-channel pipette. The plate was then immediately placed into the plate reader. The plate was shaken for 5 s to ensure thorough mixing, and then time-based measurements were recorded every 15 s for 10 min. The rate of formate oxidation was calculated using an extinction coefficient of 3.38 mM^−1 (for 200 μL).

A short description of data set [5]: Steady state kinetics for NAD^+ (FDH-catalysed formate oxidation). The data set is classed as biochemical. The following applies: for Km / kcat NAD^+: cofactor NAD^+, 0.18M formate. The protocol: as §1, §2
A short description of data set [6]: Steady state kinetics for formate oxidation. Type of data set: biochemical. As to the method: as §1
For data set [7] the following is noted: Serov et al. (2002), cited from earlier work; for Km: read-out: Km NAD^+.
The conditions of data set [8]: Serov et al. (2002), cited from earlier work; for Km: read-out: Km NADP^+.

Where two headings read alike, the source gives them in different places.

B1: Bsp184FDH: wild type FDH from Burkholderia cenocepacia PC184, Seq ID No: 2, C-terminal His-tagged (protein, listed as Burkholderia cenocepacia)
chain: MATVLCVLYPDPVDGYPPRYVRDTIPVITHYADGQTAPTPAGPPGFRPGELVGSVSGALGLRGYMEAHGHTLIVTSDKDGPDSEFERRLPEADVVISQPFWPAYLSAERIARAPKLKLALTAGIGSDHVDLDAAARARITVAEVTGSNSISVAEHVVMTTLALVRNYLPSHAVAQQGGWNIADCVSRSYDVEGMHFGTVGAGRIGLAVLRRLQPFGLQLHYTQRHRLDASIEQALALTYHADVASLASAVDIVNLQIPLYPSTEHLFDAAMIARMKRGAYLINTARAKLVDRDAVVNALTSGHLAGYGGDVWFPQPAPADHPWRTMPFNGMTPHISGTSLSAQARYAAGTLEILQCWFDGRPIRNEYLIVDGGTLAGTGAQSYRLT
modifications: C-terminal His tag
Turning to B1, in data set [1], the “temperature at which the enzymes denature” value is 80 °C. Moreover, the “activity lost upon incubation” value in data set [1] (55° C. for 2 hours) is on record as “no activity was lost”. Further, the “stability at room temperature” value in data set [1] (room temperature for weeks) is listed as “stable”. For the same molecule, in data set [2], the “activity with NADP^+” value worked out at 3.12 U/mg and the “activity with NAD^+” value is on record as 0.48 U/mg. Moreover, in data set [3], the Km (in general, the substrate concentration at which the rate is half of its maximum) stood at 1.1 ± 0.1 mM and the “kcat NADP^+” value amounted to 3.07 ± 0.083 s⁻¹. The “cofactor preference for NADP^+, times greater than those of known FDHs such as CmetFDH” value in data set [3] (relative to CmetFDH) is 10^6 times. Further, the “activity at extreme pH” value in data set [4] is reported as “highly active”. In data set [5], the Km came to 15 ± 4 mM and the “kcat NAD^+” value stood at 0.567 ± 0.12 s⁻¹. Also, the kcat (usually the number of substrate molecules converted per active site and unit of time at saturation) in data set [6] (formate oxidation with NADP^+) stood at 2.2073 ± 0.2553 s⁻¹. In addition, in data set [6] (formate oxidation with NAD^+), the Km amounted to 99.2 ± 7.11 mM and the kcat was 0.34 ± 0.0123 s⁻¹.

B2: CmetFDH: NADH-dependent wild-type FDH from Candida methylica, Seq ID No: 6 (protein, listed as Candida methylica)
chain: MKIVLVLYDAGKHAADEEKLYGCTENKLGIANWLKDQGHELITTSDKEGETSELDKHIPDADIIITTPFHPAYITKERLDKAKNLKSVVVAGVGSDHIDLDYINQTGKKISVLEVTGSNVVSVAEHVVMTMLVLVRNFVPAHEQIINHDWEVAAIAKDAYDIEGKTIATIGAGRIGYRVLERLLPFNPKELLYYDYQALPKEAEEKVGARRVENIEELVAQADIVTVNAPLHAGTKGLINKELLSKFKKGAWLVNTARGAICVAEDVAAALESGQLRGYGGDVWFPQPAPKDHPWRDMRNKYGAGNAMTPHYSGTTLDAQTRYAEGTKNILESFFTGKFDYRPQDIILLNGEYVTKAYGKHDKK
Consider B2, for which, in data set [3], the Km amounted to 7 ± 1.4 mM and the “kcat NADP^+” value turned out to be 0.005 ± 0 s⁻¹. In data set [5], the “formate oxidation, times more effective with NAD^+ than with NADP^+” value is listed as 1.7×10^4 times; the Km was determined as 0.2 mM; the “kcat NAD^+” value came out at 1.67 ± 0.033 s⁻¹. Besides, in data set [6] (formate oxidation with NAD^+), the Km amounted to 8.29 ± 1 mM and the kcat was 6.9875 ± 0.2928 s⁻¹.

B3: D197A/Y198R SceFDH: D197A/Y198R mutant of S. cerevisiae FDH, data from Serov et al. (2002) (protein, UniProt Q08911 1-376, looked up, variant D197A Y198R)
Formate dehydrogenase 1: MSKGKVLLVLYEGGKHAEEQEKLLGCIENELGIRNFIEEQGYELVTTIDKDPEPTSTVDRELKDAEIVITTPFFPAYISRNRIAEAPNLKLCVTAGVGSDHVDLEAANERKITVTEVTGSNVVSVAEHVMATILVLIRNYNGGHQQAINGEWDIAGVAKNEYDLEDKIISTVGAGRIGYRVLERLVAFNPKKLLYYARQELPAEAINRLNEASKLFNGRGDIVQRVEKLEDMVAQSDVVTINCPLHKDSRGLFNKKLISHMKDGAYLVNTARGAICVAEDVAEAVKSGKLAGYGGDVWDKQPAPKDHPWRTMDNKDHVGNAMTVHISGTSLDAQKRYAQGVKNILNSYFSKKFDYRPQDIIVQNGSYATRAYGQKK
In the case of B3, the “kcat NAD^+” value is 0.095 ± 0.01 s⁻¹ in data set [7] (0.25 M formate) and 0.12 ± 0.02 s⁻¹ in data set [7] (0.5 M formate). Further, the Km in data set [7] (0.25 M formate) was 7.6 ± 0.8 mM; in data set [7] (0.5 M formate) it was 8.4 ± 0.9 mM; in data set [8] (0.25 M formate) it was 4.5 ± 0.5 mM; in data set [8] (0.5 M formate), 7.6 ± 0.9 mM. In addition, the “kcat NADP^+” value in data set [8] (0.25 M formate) is 0.13 ± 0.01 s⁻¹; in data set [8] (0.5 M formate), 0.16 ± 0.02 s⁻¹.
